Test results: patent US5962294A, “Compositions and methods for the identification and synthesis of sialyltransferases” (The Regents of the University of California, priority 1993, dated 1999)

Assays:
rat ST3N = biological target: T1, rat ST3N (Rattus norvegicus, UniProt Q02734); experiment: Acceptor specificity of soluble rat ST3N fusion protein (Table 3); details: acceptor 0.2 mM; relative to LNT
T1 sequence (Q02734 29-374 limits assumed): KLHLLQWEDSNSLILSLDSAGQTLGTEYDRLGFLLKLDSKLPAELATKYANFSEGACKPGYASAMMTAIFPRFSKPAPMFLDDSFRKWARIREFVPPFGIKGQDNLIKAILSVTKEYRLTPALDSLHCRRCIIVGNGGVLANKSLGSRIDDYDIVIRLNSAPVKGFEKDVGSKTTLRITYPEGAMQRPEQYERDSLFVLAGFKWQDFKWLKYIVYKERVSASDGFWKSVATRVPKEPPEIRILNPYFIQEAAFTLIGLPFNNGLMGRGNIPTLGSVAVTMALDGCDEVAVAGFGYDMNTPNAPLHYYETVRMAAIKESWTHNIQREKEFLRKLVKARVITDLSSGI

ST3N = biological target: T2, ST3N (Rattus norvegicus, UniProt Q02734); experiment: Acceptor specificity of ST3N (Table 4); details: acceptor 0.2 mM
T2 sequence (Q02734 29-374 limits assumed): T1 sequence (Q02734 29-374 limits assumed)

ST3 = biological target: T3, ST3 (Homo sapiens, UniProt Q11206); experiment: Acceptor specificity of soluble ST3 (AZ3, concentrated COS-1 media); type: biochemical
T3 construct: A truncated form of ST3, lacking the first 39 amino acids of the long-form open reading frame; made in house; host or cells: COS-1 (concentrated culture medium)
T3 sequence (Q11206 41-333): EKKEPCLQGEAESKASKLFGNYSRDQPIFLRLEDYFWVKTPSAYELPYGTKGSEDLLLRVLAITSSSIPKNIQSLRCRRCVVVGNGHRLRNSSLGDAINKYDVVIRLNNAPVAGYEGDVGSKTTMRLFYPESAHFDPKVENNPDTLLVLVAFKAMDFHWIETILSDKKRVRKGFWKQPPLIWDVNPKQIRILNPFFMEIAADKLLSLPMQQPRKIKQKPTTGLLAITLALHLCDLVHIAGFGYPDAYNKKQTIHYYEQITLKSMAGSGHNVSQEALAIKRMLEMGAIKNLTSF

human ST3N = biological target: T4, human ST3N (Homo sapiens, UniProt Q11203); experiment: Acceptor specificity of soluble human ST3N (protein A fusion from COS-1 cells, on IgG Sepharose); details: acceptor 0.2 mM; relative to LNT
T4 sequence (Q11203 62-375): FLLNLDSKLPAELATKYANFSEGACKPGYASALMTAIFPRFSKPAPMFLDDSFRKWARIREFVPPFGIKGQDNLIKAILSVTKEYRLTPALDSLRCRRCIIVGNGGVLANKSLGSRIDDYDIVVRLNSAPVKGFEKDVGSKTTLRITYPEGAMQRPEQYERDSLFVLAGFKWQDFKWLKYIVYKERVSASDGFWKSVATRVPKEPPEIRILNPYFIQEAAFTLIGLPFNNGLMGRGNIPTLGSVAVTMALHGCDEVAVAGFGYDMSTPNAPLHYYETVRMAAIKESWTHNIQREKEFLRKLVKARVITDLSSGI

α2,3-N sialyltransferase = biological target: T5, α2,3-N sialyltransferase (Rattus norvegicus, UniProt Q02734); experiment: Sialyltransferase assay of soluble rat α2,3-N secreted from COS-1 cells (pBD122); type: biochemical
T5 construct: made in house; host or cells: COS-1 (concentrated culture medium, plasmid pBD122)
T5 sequence (Q02734 29-374 limits assumed): T1 sequence (Q02734 29-374 limits assumed)
Experimental: In order to produce a soluble form of the sialyltransferase for enzymatic characterization, a fusion protein containing the catalytic domain of the enzyme and the insulin cleavable signal sequence was constructed in the mammalian expression vector pSVL (Pharmacia). […] PCR reactions were carried out as described above with annealing temperature at 55° C.

ST3O = biological target: T6, ST3O (Sus scrofa, UniProt Q02745); experiment: Acceptor specificity of ST3O (Table 4); details: acceptor 0.2 mM
T6 sequence (Q02745 28-343 limits assumed): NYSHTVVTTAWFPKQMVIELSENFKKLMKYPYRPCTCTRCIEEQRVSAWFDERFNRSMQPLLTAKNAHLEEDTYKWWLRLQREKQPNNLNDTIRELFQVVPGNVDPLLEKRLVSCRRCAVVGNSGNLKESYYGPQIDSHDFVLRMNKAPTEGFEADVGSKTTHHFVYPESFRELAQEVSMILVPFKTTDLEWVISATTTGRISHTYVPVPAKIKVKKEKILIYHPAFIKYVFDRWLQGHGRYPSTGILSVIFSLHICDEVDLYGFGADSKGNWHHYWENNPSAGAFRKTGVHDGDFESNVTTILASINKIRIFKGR

## Asialo-α1 -acid glycoprotein: glycoprotein acceptor (Galβ1,4GlcNAc-R)
Rat ST3N
  Relative activity (%) Rat: 9%
ST3N
  Relative rate (%) ST3N: 9%
ST3
  acceptor substrate for ST3 enzyme (in words): sialic acid was incorporated
Human ST3N
  Relative activity (%) Human: 14%
α2,3-N sialyltransferase
  acceptor utilisation by secreted α2,3-N enzyme: capable of sialylating
ST3O
  Relative rate (%) ST30: 0%
